# According to IntAct's records for PubMed 18524952:
# B1: DNA replication licensing factor MCM3 (Mus musculus), P25206 (parent)
# chain: MAGTVVLDDVELREAQRDYLDFLDDEEDQGIYQNKVRELISDNQYRLIVSVNDLRRKNEKRANRLLNNAFEELVAFQRALKDFVASIDATYAKQYEEFYIGLEGSFGSKHVSPRTLTSCFLSCVVCVEGIVTKCSLVRPKVVRSVHYCPATKKTIERRYSDLTTLVAFPSSSVYPTKDEENNPLETEYGLSVYKDHQTITIQEMPEKAPAGQLPRSVDVILDDDLVDKVKPGDRIQVVGTYRCLPGKKGCYTSGTFRTVLIACNVKQMSKDIQPAFSADDIAKIKKFSKTRSKDVFEQLARSLAPSIHGHDYVKKAILCLLLGGVERELENGSHIRGDINILLIGDPSVAKSQLLRYVLCTAPRAIPTTGRGSSGVGLTAAVTTDQETGERRLEAGAMVLADRGVVCIDEFDKMSDMDRTAIHEVMEQGRVTIAKAGIHARLNARCSVLAAANPVYGRYDQYKTPMENIGLQDSLLSRFDLLFIMLDQMDPEQDREISDHVLRMHQYRAPGEQDGDALPLGSSVDILATDDPDFTQDDQQDTRIYEKHDSLLHGTKKKKEKMVSAAFMKKYIHVAKIIKPTLTQESAAYIAEEYSRLRSQDSMSSDTARTSPVTARTLETLIRLATAHAKARMSKTVDLQDAEEAVELVQYAYFKKVLEKEKKRKKASEDESDLEDEEEKSQEDTEQKRKRRKTHAKDGESYDPYDFSEAETQMPQVHTPKTDDSQEKTDDSQETQDSQKVELSEPRLKAFKAALLEVFQEAHEQSVGMLHLTESINRNREEPFSSEEIQACLSRMQDDNQVMVSEGIVFLI
# B2: DNA replication licensing factor MCM3 (Mus musculus), P25206 (parent)
# chain: B1 chain
# partner: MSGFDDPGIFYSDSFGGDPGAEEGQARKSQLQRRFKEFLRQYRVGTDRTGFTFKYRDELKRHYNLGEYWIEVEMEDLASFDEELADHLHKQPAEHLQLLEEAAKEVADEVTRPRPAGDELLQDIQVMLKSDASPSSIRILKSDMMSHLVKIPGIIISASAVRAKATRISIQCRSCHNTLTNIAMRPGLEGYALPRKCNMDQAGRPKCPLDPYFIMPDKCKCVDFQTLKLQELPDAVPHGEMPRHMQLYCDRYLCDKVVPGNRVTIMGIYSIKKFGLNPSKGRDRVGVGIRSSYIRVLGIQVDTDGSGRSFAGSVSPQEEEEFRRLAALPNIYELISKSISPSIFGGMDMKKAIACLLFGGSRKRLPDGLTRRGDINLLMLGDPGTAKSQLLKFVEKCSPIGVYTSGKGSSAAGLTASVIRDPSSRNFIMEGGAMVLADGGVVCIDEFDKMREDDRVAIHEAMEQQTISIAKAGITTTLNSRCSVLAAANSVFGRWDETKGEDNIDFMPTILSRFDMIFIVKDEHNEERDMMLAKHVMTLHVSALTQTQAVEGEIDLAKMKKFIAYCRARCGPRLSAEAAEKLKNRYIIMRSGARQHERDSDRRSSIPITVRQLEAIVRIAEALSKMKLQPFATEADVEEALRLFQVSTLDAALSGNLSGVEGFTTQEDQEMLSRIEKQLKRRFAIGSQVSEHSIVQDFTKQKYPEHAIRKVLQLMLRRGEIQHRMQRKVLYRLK
# Variants of: B1
# Details: with mcm2_mouse Mcm2, P97310
# Chain of mcm2_mouse Mcm2, P97310 (P97310 whole entry): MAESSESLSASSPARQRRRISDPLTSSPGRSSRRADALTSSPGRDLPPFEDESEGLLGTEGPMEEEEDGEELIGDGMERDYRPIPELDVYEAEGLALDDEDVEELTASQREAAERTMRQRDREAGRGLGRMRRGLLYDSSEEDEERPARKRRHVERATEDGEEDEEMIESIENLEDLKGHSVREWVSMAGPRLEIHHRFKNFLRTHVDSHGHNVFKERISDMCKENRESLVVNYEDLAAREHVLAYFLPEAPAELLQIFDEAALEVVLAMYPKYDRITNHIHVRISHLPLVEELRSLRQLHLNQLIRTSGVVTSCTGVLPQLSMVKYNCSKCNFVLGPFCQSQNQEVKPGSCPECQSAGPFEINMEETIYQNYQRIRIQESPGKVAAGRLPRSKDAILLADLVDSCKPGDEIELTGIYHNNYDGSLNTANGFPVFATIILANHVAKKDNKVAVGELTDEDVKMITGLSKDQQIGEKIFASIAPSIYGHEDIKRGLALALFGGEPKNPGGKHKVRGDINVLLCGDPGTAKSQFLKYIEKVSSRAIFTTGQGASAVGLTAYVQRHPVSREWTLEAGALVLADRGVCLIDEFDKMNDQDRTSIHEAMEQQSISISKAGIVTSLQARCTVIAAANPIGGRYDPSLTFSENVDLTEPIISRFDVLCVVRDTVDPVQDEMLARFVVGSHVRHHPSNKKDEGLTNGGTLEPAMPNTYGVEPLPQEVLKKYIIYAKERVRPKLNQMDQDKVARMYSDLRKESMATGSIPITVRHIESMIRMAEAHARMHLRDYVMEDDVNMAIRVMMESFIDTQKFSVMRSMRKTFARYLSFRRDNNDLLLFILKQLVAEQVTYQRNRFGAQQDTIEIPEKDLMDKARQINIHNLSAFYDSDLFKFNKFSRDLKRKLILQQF
row,Variant,effect of a mutation on the interaction
1,S112A,disrupting interaction

# Variants of: B1
# Details: with mcm7_mouse Mcm7, Q61881
# Chain of mcm7_mouse Mcm7, Q61881 (Q61881 whole entry): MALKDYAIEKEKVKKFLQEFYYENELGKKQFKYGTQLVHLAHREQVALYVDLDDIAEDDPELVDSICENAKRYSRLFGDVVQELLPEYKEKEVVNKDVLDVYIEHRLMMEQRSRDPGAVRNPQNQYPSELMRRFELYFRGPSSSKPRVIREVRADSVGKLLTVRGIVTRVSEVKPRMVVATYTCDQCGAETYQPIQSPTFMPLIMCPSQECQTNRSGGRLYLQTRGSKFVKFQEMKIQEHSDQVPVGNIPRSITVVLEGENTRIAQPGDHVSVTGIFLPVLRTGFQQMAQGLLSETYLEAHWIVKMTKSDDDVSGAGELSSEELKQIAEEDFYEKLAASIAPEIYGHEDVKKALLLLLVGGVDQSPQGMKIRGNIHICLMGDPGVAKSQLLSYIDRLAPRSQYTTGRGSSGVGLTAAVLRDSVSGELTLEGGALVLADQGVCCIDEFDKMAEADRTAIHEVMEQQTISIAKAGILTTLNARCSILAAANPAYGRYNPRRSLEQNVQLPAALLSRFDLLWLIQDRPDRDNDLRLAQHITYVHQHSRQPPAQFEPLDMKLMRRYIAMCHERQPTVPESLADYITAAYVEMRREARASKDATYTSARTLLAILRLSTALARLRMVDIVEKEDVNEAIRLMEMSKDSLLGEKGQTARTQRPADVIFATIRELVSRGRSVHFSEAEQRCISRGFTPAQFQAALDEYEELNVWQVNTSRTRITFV
row,Variant,effect of a mutation on the interaction
1,S112A,disrupting interaction

# Variants of: B2
# Details: with mcm5_mouse Mcm5, P49718
row,Variant,effect of a mutation on the interaction
1,S112A,decreasing interaction
2,S112A;T464A;S611A;T719A,disrupting interaction
3,S112A;T719A,decreasing interaction
4,S112A;S611A,decreasing interaction
